Assay results taken from patent US20190263934A1.

Legend:
[1] = biological target: biotinylated human FcRn (hFcRn; p51 subunit residues 24-297 with C-terminal Avi-tag, β2-m residues 21-119) (human) (UniProt P55899); assay: Biacore SPR, human FcRn, pH 7.4, steady state
[2] = biological target: biotinylated human FcRn (hFcRn; p51 subunit residues 24-297 with C-terminal Avi-tag, β2-m residues 21-119) (human) (UniProt P55899); assay: Biacore SPR, human FcRn, pH 6.0 (column 'Affinity, pH 6.0 (nM)')
[3] = biological target: biotinylated human FcRn (hFcRn; p51 subunit residues 24-297 with C-terminal Avi-tag, β2-m residues 21-119) (human) (UniProt P55899); assay: Biacore SPR, Biotin CAPture, pH 7.4, 1000 nM antibody, steady state
[4] = biological target: biotinylated human FcRn (hFcRn; p51 subunit residues 24-297 with C-terminal Avi-tag, β2-m residues 21-119) (human) (UniProt P55899); assay: Biacore SPR, Biotin CAPture of biotinylated human FcRn, pH 6.0
[5] = biological target: rFcRn (rat) (UniProt P13599); assay: Biacore SPR, pH 7.4, single antibody concentration, steady state
Target sequence in this assay (P13599 23-298, form in doubt, chain 1 of 2): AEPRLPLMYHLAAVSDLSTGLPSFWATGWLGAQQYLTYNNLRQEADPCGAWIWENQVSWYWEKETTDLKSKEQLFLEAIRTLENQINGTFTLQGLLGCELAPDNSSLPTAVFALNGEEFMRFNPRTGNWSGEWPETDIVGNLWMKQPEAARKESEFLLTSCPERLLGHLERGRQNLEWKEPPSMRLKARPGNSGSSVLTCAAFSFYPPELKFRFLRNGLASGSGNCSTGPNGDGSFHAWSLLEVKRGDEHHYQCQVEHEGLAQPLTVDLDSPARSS
Target sequence in this assay (P07151 21-119, form in doubt, chain 2 of 2, further chain): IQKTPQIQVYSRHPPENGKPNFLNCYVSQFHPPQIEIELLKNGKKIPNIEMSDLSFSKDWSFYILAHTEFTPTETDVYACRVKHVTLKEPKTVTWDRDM

[6] = biological target: biotinylated hFcRn (human) (UniProt P55899); assay: as above
Target sequence in this assay (P55899 24-297, form in doubt, chain 1 of 2): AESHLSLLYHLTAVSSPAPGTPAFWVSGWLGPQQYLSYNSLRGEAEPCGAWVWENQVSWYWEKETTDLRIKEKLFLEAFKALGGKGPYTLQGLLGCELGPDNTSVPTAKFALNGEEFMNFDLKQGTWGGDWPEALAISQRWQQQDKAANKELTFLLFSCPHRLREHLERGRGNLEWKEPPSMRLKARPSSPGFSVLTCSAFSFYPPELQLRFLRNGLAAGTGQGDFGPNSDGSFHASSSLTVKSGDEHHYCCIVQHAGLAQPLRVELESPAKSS
Target sequence in this assay (P61769 21-119, form in doubt, chain 2 of 2, further chain): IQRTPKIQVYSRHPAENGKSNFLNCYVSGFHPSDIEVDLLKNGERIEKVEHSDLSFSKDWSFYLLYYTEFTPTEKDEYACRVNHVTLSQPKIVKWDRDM

[7] = biological target: Human CD16a (FcγRIIIa) V158 with C-terminal HPC4 tag (human) (UniProt P08637); assay: Biacore SPR, captured HPC4-tagged FcγRIIIa-V158, steady-state fit
Sequence of Human CD16a (FcγRIIIa) V158 with C-terminal HPC4 tag (human) (P08637 17-208 F176V): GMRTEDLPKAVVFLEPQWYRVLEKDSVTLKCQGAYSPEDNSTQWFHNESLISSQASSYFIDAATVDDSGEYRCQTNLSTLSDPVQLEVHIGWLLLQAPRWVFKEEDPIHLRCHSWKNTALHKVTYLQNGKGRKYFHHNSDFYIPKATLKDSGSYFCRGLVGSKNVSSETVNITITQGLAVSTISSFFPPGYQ

[8] = biological target: rFcRn (rat) (UniProt P13599); assay: Biacore SPR, pH 6.0, bivalent fit
Target sequence in this assay (P13599 23-298, form in doubt, chain 1 of 2): as the sequence (P13599 23-298, form in doubt, chain 1 of 2) above
Target sequence in this assay (P07151 21-119, form in doubt, chain 2 of 2, further chain): as the sequence (P07151 21-119, form in doubt, chain 2 of 2, further chain) above

[9] = biological target: biotinylated hFcRn (human) (UniProt P55899); assay: Biacore SPR, pH 6.0, bivalent fit
Target sequence in this assay (P55899 24-297, form in doubt, chain 1 of 2): as the sequence (P55899 24-297, form in doubt, chain 1 of 2) above
Target sequence in this assay (P61769 21-119, form in doubt, chain 2 of 2, further chain): as the sequence (P61769 21-119, form in doubt, chain 2 of 2, further chain) above

[10] = biological target: rFcRn (rat) (UniProt P13599); assay: SPR Biacore, pH 6.0
Target sequence in this assay (P13599 23-298 limits assumed, form in doubt, chain 1 of 2): as the sequence (P13599 23-298, form in doubt, chain 1 of 2) above
Target sequence in this assay (P07151 21-119 limits assumed, form in doubt, chain 2 of 2, further chain): as the sequence (P07151 21-119, form in doubt, chain 2 of 2, further chain) above

[11] = biological target: rFcRn (rat) (UniProt P13599); assay: SPR Biacore, pH 6.0; remark: listed apart in the source
Target sequence in this assay (P13599 23-298 limits assumed, form in doubt, chain 1 of 2): as the sequence (P13599 23-298, form in doubt, chain 1 of 2) above
Target sequence in this assay (P07151 21-119 limits assumed, form in doubt, chain 2 of 2, further chain): as the sequence (P07151 21-119, form in doubt, chain 2 of 2, further chain) above

[12] = biological target: rFcRn (rat) (UniProt P13599); assay: SPR Biacore, pH 7.4
Target sequence in this assay (P13599 23-298 limits assumed, form in doubt, chain 1 of 2): as the sequence (P13599 23-298, form in doubt, chain 1 of 2) above
Target sequence in this assay (P07151 21-119 limits assumed, form in doubt, chain 2 of 2, further chain): as the sequence (P07151 21-119, form in doubt, chain 2 of 2, further chain) above

[13] = biological target: biotinylated hFcRn (human) (UniProt P55899); assay: SPR Biacore, pH 7.4
Target sequence in this assay (P55899 24-297 limits assumed, form in doubt, chain 1 of 2): as the sequence (P55899 24-297, form in doubt, chain 1 of 2) above
Target sequence in this assay (P61769 21-119 limits assumed, form in doubt, chain 2 of 2, further chain): as the sequence (P61769 21-119, form in doubt, chain 2 of 2, further chain) above

[14] = biological target: biotinylated human FcRn (hFcRn; p51 subunit residues 24-297 with C-terminal Avi-tag, β2-m residues 21-119) (human) (UniProt P55899); assay: Biacore SPR; pH 6.0 affinity (M^-1) over pH 7.4 steady state RU
[15] = biological target: biotinylated human FcRn (hFcRn; p51 subunit residues 24-297 with C-terminal Avi-tag, β2-m residues 21-119) (human) (UniProt P55899); assay: Biacore SPR, pH 7.4, steady state, 1000 nM antibody
[16] = biological target: biotinylated human FcRn (hFcRn; p51 subunit residues 24-297 with C-terminal Avi-tag, β2-m residues 21-119) (human) (UniProt P55899); assay: Biacore SPR, pH 6.0, apparent affinity
[17] = biological target: biotinylated human FcRn (hFcRn; p51 subunit residues 24-297 with C-terminal Avi-tag, β2-m residues 21-119) (human) (UniProt P55899); assay: Biacore SPR; second ratio column (inverse of c7)
[18] = biological target: biotinylated hFcRn (human) (UniProt P55899); assay: SPR Biacore, pH 6.0
Target sequence in this assay (P55899 24-297 limits assumed, form in doubt, chain 1 of 2): as the sequence (P55899 24-297, form in doubt, chain 1 of 2) above
Target sequence in this assay (P61769 21-119 limits assumed, form in doubt, chain 2 of 2, further chain): as the sequence (P61769 21-119, form in doubt, chain 2 of 2, further chain) above

[19] = biological target: biotinylated hFcRn (human) (UniProt P55899); assay: SPR Biacore, pH 6.0; remark: listed apart in the source
Target sequence in this assay (P55899 24-297 limits assumed, form in doubt, chain 1 of 2): as the sequence (P55899 24-297, form in doubt, chain 1 of 2) above
Target sequence in this assay (P61769 21-119 limits assumed, form in doubt, chain 2 of 2, further chain): as the sequence (P61769 21-119, form in doubt, chain 2 of 2, further chain) above

[20] = biological target: Human CD16a (FcγRIIIa) V158 with C-terminal HPC4 tag (human) (UniProt P08637); assay: SPR Biacore, captured FcγRIIIa-V158
[21] = biological target: rFcRn (rat) (UniProt P13599); assay: BLI Octet, pH 6.0, purified antibody
Target sequence in this assay (P13599 23-298 limits assumed, form in doubt, chain 1 of 2): as the sequence (P13599 23-298, form in doubt, chain 1 of 2) above
Target sequence in this assay (P07151 21-119 limits assumed, form in doubt, chain 2 of 2, further chain): as the sequence (P07151 21-119, form in doubt, chain 2 of 2, further chain) above

[22] = biological target: biotinylated hFcRn (human) (UniProt P55899); assay: SPR Biacore, pH 7.4; remark: listed apart in the source
Target sequence in this assay (P55899 24-297 limits assumed, form in doubt, chain 1 of 2): as the sequence (P55899 24-297, form in doubt, chain 1 of 2) above
Target sequence in this assay (P61769 21-119 limits assumed, form in doubt, chain 2 of 2, further chain): as the sequence (P61769 21-119, form in doubt, chain 2 of 2, further chain) above

[23] = biological target: rFcRn (rat) (UniProt P13599); assay: SPR Biacore, pH 7.4, 1000 nM antibody
Target sequence in this assay (P13599 23-298 limits assumed, form in doubt, chain 1 of 2): as the sequence (P13599 23-298, form in doubt, chain 1 of 2) above
Target sequence in this assay (P07151 21-119 limits assumed, form in doubt, chain 2 of 2, further chain): as the sequence (P07151 21-119, form in doubt, chain 2 of 2, further chain) above

[24] = biological target: biotinylated hFcRn (human) (UniProt P55899); assay: SPR Biacore, pH 7.4, 1000 nM antibody
Target sequence in this assay (P55899 24-297 limits assumed, form in doubt, chain 1 of 2): as the sequence (P55899 24-297, form in doubt, chain 1 of 2) above
Target sequence in this assay (P61769 21-119 limits assumed, form in doubt, chain 2 of 2, further chain): as the sequence (P61769 21-119, form in doubt, chain 2 of 2, further chain) above

[25] = biological target: Human CD16a (FcγRIIIa residues 17-208, C-terminal HPC4 tag, valine at position 158) (human) (UniProt P08637); assay: Biacore SPR, HPC4-captured FcγRIIIa-V158, pH 7.4
Sequence of Human CD16a (FcγRIIIa residues 17-208, C-terminal HPC4 tag, valine at position 158) (human) (P08637 17-208 F176V): as the sequence (P08637 17-208 F176V) above

Sequence of biotinylated human FcRn (hFcRn; p51 subunit residues 24-297 with C-terminal Avi-tag, β2-m residues 21-119) (human) (P55899 24-297, form in doubt, chain 1 of 2): as the sequence (P55899 24-297, form in doubt, chain 1 of 2) above
Sequence of biotinylated human FcRn (hFcRn; p51 subunit residues 24-297 with C-terminal Avi-tag, β2-m residues 21-119) (human) (P61769 21-119, form in doubt, chain 2 of 2, further chain): as the sequence (P61769 21-119, form in doubt, chain 2 of 2, further chain) above

Substance	Steady State RU (pH 7.4) [5] [RU]	Steady State RU (pH 7.4) [6] [RU]	Kd [7] [nM]	Kd [8] [nM]	koff [8] [s⁻¹]	kon [8] [M⁻¹ s⁻¹]	Kd [9] [nM]	kon [9] [M⁻¹ s⁻¹]	Kd [11] [nM]	koff [11] [s⁻¹]	kon [11] [M⁻¹ s⁻¹]	Kd [19] [nM]	koff [19] [s⁻¹]	kon [19] [M⁻¹ s⁻¹]	other results
YTEKF benchmark (MST-HN variant; M252Y/S254T/T256E/H433K/N434F) (antibody)	–	–	–	–	–	–	–	–	–	–	–	–	–	–	Steady State RU (pH 7.4) [1]: 89.9 RU; Kd [2]: 14.8 nM; pH 7.4 RU [3]: 89.9 RU; Kd [4]: 14.8 nM
mAb1 LS (M428L/N434S) (antibody)	24.8	18.3	369	74	0.0066	91000	272	193000	–	–	–	–	–	–	koff [9]: 0.05 s⁻¹
mAb1 M252Y/T256D (antibody)	–	–	–	–	–	–	–	–	5.86	–	–	–	–	–	Kd [10]: 5.9 nM; Steady State RU [12]: 56 RU; Steady State RU [13]: 9.7 RU
mAb1 MDQN (T256D/T307Q) (antibody)	39.1	10.7	600	9.5	0.0013	13000	232	38000	–	–	–	–	–	–	–
mAb1 MDWN (T256D/T307W) (antibody)	42.1	12.2	512	8.2	0.0013	16000	169	53000	–	–	–	–	–	–	–
mAb1 MDWY variant (T256D/T307W/N434Y) (antibody)	–	–	–	–	–	–	–	–	–	–	–	–	–	–	pH 7.4 RU [3]: 59.8 RU; Ratio (pH 6.0/pH 7.4) [14]: 1.42e+06; Steady State Binding, pH 7.4 (RU) [15]: 59 RU; Ka [16]: 8.4e+07 M⁻¹; Ratio (pH 7.4/pH 6.0) [17]: 7.02e-07; Kd [4]: 18.1 nM
mAb1 T256D/T307Q (antibody)	–	–	–	–	–	–	–	–	9.54	0.00127	133000	232	0.0872	376000	Kd [10]: 9.5 nM; koff [18]: 0.87 s⁻¹; kon [18]: 38000 M⁻¹ s⁻¹; Steady State RU [12]: 39.1 RU; Steady State RU [13]: 10.7 RU; FcγRIIIa V158 Affinity Fold Change (relative to WT) [20]: 0.73 fold
mAb1 T256D/T307W (antibody)	–	–	–	–	–	–	–	–	8.24	0.00129	157000	169	0.0892	529000	Kd [10]: 8.2 nM; koff [18]: 0.89 s⁻¹; kon [18]: 53000 M⁻¹ s⁻¹; Steady State RU [12]: 42.1 RU; Steady State RU [13]: 12.2 RU; FcγRIIIa V158 Affinity Fold Change (relative to WT) [20]: 0.89 fold
mAb1 T307A/E380A/N434A (antibody)	–	–	–	–	–	–	–	–	77	0.0117	157000	1780	0.144	83700	koff [21]: 0.00377 s⁻¹; Steady State RU [22]: 13.1 RU; Steady State RU [23]: 23.6 RU; Steady State RU [24]: 13.9 RU
mAb1 T307E (antibody)	–	–	–	141	0.006	56000	8130	44000	141	0.00603	55500	8130	0.298	43700	koff [21]: 0.00329 s⁻¹; Steady State RU [23]: 21.5 RU; Steady State RU [24]: 5.7 RU; koff [9]: 0.3 s⁻¹
mAb1 YDQF variant (M252Y/T256D/T307Q/N434F) (antibody)	–	–	–	–	–	–	–	–	–	–	–	–	–	–	Steady State RU (pH 7.4) [1]: 91.7 RU; FcγRIIIa Binding (RU) [25]: 93.2 RU; pH 7.4 RU [3]: 91.7 RU; Steady State Binding, pH 7.4 (RU) [15]: 68.6 RU; Ka [16]: 1.11e+08 M⁻¹
mAb1 YDQN (M252Y/T256D/T307Q) (antibody)	65.2	19.8	1060	5.1	0.0003	5000	115	25000	–	–	–	–	–	–	koff [9]: 0.28 s⁻¹
